Data taken from patent US20230330242A1 (published 2023).

Experiments:
[1] = biological target: T1, Hu/Cy/Rh ROR1-His (human/cyno/rhesus, UniProt Q01973 30-403, limits assumed); experiment: SPR, purified protein
T1 construct: Purified His-tagged ROR1 protein; also called HUMAN/CYNO/RHESUS ROR-1; not shown: His tag

[2] = biological target: T2, human ROR-1 endogenously expressed on JeKo-1 and MDA-MB-468 cells (human, UniProt Q01973 30-937); experiment: flow cytometry, cell binding saturation on ROR-1 positive cells
T2 construct: whole, on cells; also called ROR-1 receptor; receptor tyrosine kinase like orphan receptor 1
Method: A cell binding saturation assay was developed to evaluate how well the anti_ROR-1 antibodies developed in Example 28 bound to endogenously expressed extracellular ROR-1 protein on cell lines. […] Cells were then washed and subjected to secondary antibody staining and detection by flow cytometry. Mean fluorescence (MFI) was determined by analysis on cytometer software. […] (See FIG. 27).

[3] = biological target: T2, human ROR-1 endogenously expressed on …; experiment: cell-based or functional assay
[4] = biological target: T3, Mouse ROR1-His (mouse, UniProt Q9Z139 30-403, limits assumed); experiment: SPR, purified protein
T3 construct: Purified His-tagged mouse ROR1 protein; not shown: His tag
T3 sequence (Q9Z139 30-403 limits assumed): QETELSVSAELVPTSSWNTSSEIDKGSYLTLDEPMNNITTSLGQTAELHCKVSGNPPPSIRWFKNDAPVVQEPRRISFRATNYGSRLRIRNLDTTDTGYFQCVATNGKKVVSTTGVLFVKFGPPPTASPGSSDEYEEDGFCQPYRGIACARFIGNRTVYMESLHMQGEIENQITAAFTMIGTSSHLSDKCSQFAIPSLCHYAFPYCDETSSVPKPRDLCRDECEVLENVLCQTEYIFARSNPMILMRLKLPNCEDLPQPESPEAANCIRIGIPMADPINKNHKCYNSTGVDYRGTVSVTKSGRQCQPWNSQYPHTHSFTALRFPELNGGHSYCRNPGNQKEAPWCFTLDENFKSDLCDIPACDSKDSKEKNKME

| Kd [1] [nM] | koff [1] [s⁻¹] | kon [1] [M⁻¹ s⁻¹] | saturating concentration [2] [nM] | percent receptor internalization relative to zero hours [3] [%] | Kd [4] [nM] | koff [4] [s⁻¹] | kon [4] [M⁻¹ s⁻¹] | Binder |
| --- | --- | --- | --- | --- | --- | --- | --- | --- |
| 10.9 | 0.00295 | 270000 | 74 | ≥ 75 | 45.3 | 0.00132 | 29200 | ATX-P-885 (antibody, human IgG1, kappa, V domains shown, Full length IgG (IgG1, kappa) expressed in HEK293; also called mAb B) VH: QVQLQQWGAGLLKPSETLSLTCAVYGGSFSGYYWSWIRQPPGKGLEWIGEINHSGSTNYNPSLKSRVTISVDTSKNQFSLKLSSVTAADTAVYYCAREGVYEDYWGQGTLVTVSS VL: EIVLTQSPATLSLSPGERATLSCRASQSVSNYLAWYQQKPGQAPRLLIYDAYNRATGIPARFSGSGSGTDFTLTISSLEPEDFAVYYCQQRSNWPLTFGQGTRLEIKR |
|  |  |  | 74 |  |  |  |  | ATX-P-875 (antibody, human IgG1, kappa, V domains shown, Full length IgG (IgG1, kappa) expressed in HEK293; also called mAb A) VH: not shown VL: DIQMTQSPSSLSASVGDRVTITCRASQSISSYLNWYQQKPGKAPKLLIYAASSLQSGVPSRFSGSGSGTDFTLTISSLQPEDFATYYCQQYDNLPITFGQGTRLEIKR |
